The results in this text go back to patent publication US20130309248A1.

pKd: −log10 of the molar value.

The pKd is −log10 of the Kd, conventionally taken in molar units. The koff is a measure of how fast the partners let go of each other. In general, kon refers to the rate constant with which the complex forms.

Assay [1] deals with recombinant H3 HA (A/Wisconsin/67/2005) (influenza A virus (H3N2)). The experiment in a line: BLI (Octet RED), biotinylated HA on streptavidin sensor, 1:1 model. For orientation: Biolayer interferometry detects binding as a change in optical thickness at a sensor tip.
Assay [2] concerns the target H3 HA antigen (A/Brisbane/10/2007) (influenza A virus (H3)). Described as above.
The target of assay [3] is full-length recombinant H1 HA (A/New Caledonia/20/1999) on PER.C6 cells (influenza A virus (H1N1)). In words: FACS, IgG 5 µg/ml, HA-expressing PER.C6 cells; untransfected MFI 4.
In assay [4] the target is full-length recombinant H7 HA (A/Netherlands/219/2003) on PER.C6 cells (influenza A virus (H7N7)). The description is as above.
Assay [5] addresses full-length recombinant H3 HA (A/Wisconsin/67/2005) on PER.C6 cells (influenza A virus (H3N2)). Described as above.

Take Fab fragment of CR8043: in assay [1], the pKd was 9.52, the koff was 9.86e-05 s⁻¹ and the on-rate constant (kon) worked out at 408000 M⁻¹ s⁻¹. Besides, in assay [2], the pKd is 9.52, the off-rate constant (koff) is 8.69e-05 s⁻¹ and the kon worked out at 312000 M⁻¹ s⁻¹.

Turning to CR8043 (antibody), the figures for the MFI in assay [3], in assay [4] and in assay [5] were 4 MFI, 11 MFI and 646 MFI, respectively.

Take CR8020 (antibody): the results for the MFI in assay [3], in assay [4] and in assay [5] were 3 MFI, 140 MFI and 657 MFI, respectively.

On to Fab fragment of CR8020, for which, in assay [1], the pKd is 7.95, the koff was found to be 0.00208 s⁻¹ and the kon worked out at 203000 M⁻¹ s⁻¹. In assay [2], this substance had a pKd of 8.05, a koff of 0.00143 s⁻¹ and a kon of 181000 M⁻¹ s⁻¹.
